{
  "source": "patent US20230037682A1",
  "about": "(published 2023)",
  "key": {"CD3 peptide [1]": {"molecular_target": "CD3 peptide", "assay": "SPR (Biacore); 25 °C"}, "CD3 peptide [2]": {"molecular_target": "CD3 peptide", "assay": "SPR (Biacore); 25 °C", "remark": "listed apart in the source"}},
  "note": "Where two headings read alike, the source gives them in different places.",
  "data": [
    {"binder": "CD3_13 (NOV292) (antibody, V domains shown) VH: QVQLVESGGGVVQPGRSLRLSCAASGFTFSKNGMHWVRQAPGKGLEWVAMIYYDSSKMYYADTVKGRFTISRDNSKNTLYLQMNSLRAEDTAVYYCASFWWDLDFDHWGQGTMVTVSS VL: DIVMTQTPLSSPVTLGQPASISCRSSQSLVRSDGTTYFNWYQQRPGQPPRLLIYRVSNRFSGVPDRFSGSGAGTDFTLKISRVEAEDVGVYYCLQSSHFPWTFGGGTKVEIKR", "values": [
      {"measurement": "Kd", "setting": "CD3 peptide [1]", "result": 4.59, "unit": "nM"}
    ]},
    {"binder": "CD3_12 (NOV123) (antibody, V domains shown) VH: QVQLVQSGAEVKKPGASVKVSCKASGYTFTSYYIYWVRQAPGQRLEWMGYIYPGHDAIYYSENFKGRVTITADTSASTAYMELSSLRSEDTAVYYCVRPNTMMAPLAYWGQGTLVTVSS VL: DVVMTQSPLSLPVTLGQPASISCRSSQSLIYSIGNTYLHWYQQRPGQSPRLLIYRVSNRFSGVPDRFSGSGSGTDFTLKISRVEAEDVGVYYCFQSTHLPYTFGQGTKLEIKR", "values": [
      {"measurement": "Kd", "setting": "CD3 peptide [2]", "result": 262, "unit": "nM"}
    ]}
  ]
}
